Laboratory results published in patent US20220119522A1 (DENALI THERAPEUTICS, published 2022).
Residue numbers refer to the chain shown, from its start. No end group written: not given here.

T1: His-tagged human TREM2 ECD (human, UniProt Q9NZC2 19-172)
T1 construct: Biacore and HDX say only recombinant human TREM2 (ECD); also called recombinant human TREM2; hTREM2
T1 sequence: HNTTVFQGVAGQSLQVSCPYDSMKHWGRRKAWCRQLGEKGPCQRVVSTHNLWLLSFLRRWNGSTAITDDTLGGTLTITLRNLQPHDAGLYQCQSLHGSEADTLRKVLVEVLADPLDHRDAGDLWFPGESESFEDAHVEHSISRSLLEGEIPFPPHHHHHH

T2: human TREM2 full length stalk region peptide (aa 129-172) (human, biotinylated (site not stated))
T2 construct: also called Human TREM2 peptide (aa 129-172); full-length TREM2 stalk peptide
T2 peptide: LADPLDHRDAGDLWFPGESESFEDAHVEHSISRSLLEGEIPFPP

T3: mouse TREM2 full length stalk region peptide (aa 131-169) (mouse, UniProt Q99NH8 131-169, biotinylated (site not stated))
T3 peptide (looked up): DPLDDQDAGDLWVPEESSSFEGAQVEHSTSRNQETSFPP

T4: human TREM2 truncated stalk peptide (aa 149-163) (human, also: biotinylated (site not given here))
T4 construct: also called Human TREM2 peptide (aa 149-163); truncated stalk peptide containing the ADAM10/17 cleavage site
T4 peptide: SFEDAHVEHSISRSL

T5: human TREM2 on the cell surface (human, UniProt Q9NZC2 19-230)
T5 sequence: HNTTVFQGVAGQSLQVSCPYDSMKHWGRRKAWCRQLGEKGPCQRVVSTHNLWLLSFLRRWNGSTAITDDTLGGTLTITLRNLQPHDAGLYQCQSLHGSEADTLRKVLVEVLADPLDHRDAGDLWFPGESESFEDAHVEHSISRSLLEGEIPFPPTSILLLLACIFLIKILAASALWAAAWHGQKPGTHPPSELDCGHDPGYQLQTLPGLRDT

B1: CL0020141 (antibody, V domains shown)
VH: EVTLVESGGGLVQPGGSLRLSCATSGFTFTDYYMSWVRQPPGKALEWLGFIRDKANGYTTDYSASVKGRFTISRDNSQNILYLQMNTLRAEDSATYYCSRLLRAQGFAYWGQGTLVTVSA
VL: DIVMSQSPSSLGVSIGEKVIMSCTSGQSLLYSNNQKNYLAWYQQKPGQSPKLLIYWASTRESGVPDRFTGSGSGTDFTLTINSVKAEDLAVYYCQQYYRNPFTFGSGTKLEIK
notes: also called Clone CL0020141
B2: CL0020096 (antibody, V domains shown)
VH: QIQLVQSGPELRKPGETVKISCKASGYTFTTYGMSWVKQAPGKGLKWMGWINTYSGLPRHSDDFKGRFAFSLETSASTAYLQINNLKNEDTATYFCAREVYYGSRKTAWFAYWGQGTLVTVSA
VL: DLVMSQSPSSLAVSVGERVTMSCKSSQSLLYSNDQKNYLAWYQQIPGQSPKLLIYWASTRESGVPDRFTGSGSGTDFTLTISSVKAEDLAVYFCQQYYSYPPTFGAGTKLELK
notes: also called Clone CL0020096
B3: CL0020164 (antibody, V domains shown)
VH: EVKLLESGGGLVQPGGSLRLSCAASGFTFTDFYMSWIRQPPGKAPEWLGVIRNKANGFTTEYNTSVKGRFTISRDYTQNILHLQTNTLRAEDTAIYYCARLTYGFDYWGQGVMVTVSS
VL: DIVMTQGALPNPVPSGESASITCQSSKSLLHSNGKTYLNWYLQRPGQSPQFLIYWMSTRASGVSDRFSGSGSGTDFTLKISSVEAEDVGVYYCQQFLELPFTFGSGTKLEIK
notes: also called Clone CL0020164
B4: CL0020109 (antibody, V domains shown)
VH: EVQLQQSGPVLVKPGASLKMSCRASGYTFTDYYVHWVKQSHGKSLEWIGLINPYTGTTSYNQRFKGKATLTVDKSSSTAYMEVNSLTSEDSAVYYCARSRVYYGSSLFAFWGQGTLVTVSA
VL: DIVMTQSPSSLSVSAGEKVTMSCKSSQSLLNSGNQKNYLAWYQQKPGQPPKLLIYGASTRESGVPDRFTGSGSGTDFTLTISSVQAEDLAVYYCQNDHSYPYTFGGGTKLEIK
notes: also called Clone CL0020109
B5: CL0020215 (antibody, V domains shown)
VH: QVQLQQPGAELVKPGASVKMSCKASGYTFTNYWIMWVKQRPGQGLEWIGDIYPSSGSTNYNEKFKNRATLTVDTSSNTAYMQLSSLTSEDSAVYFCSREGYGISAWGQGTTLTVSS
VL: QIVLTQSPAIMSASPGEKVTITCSASSSVSYMHWFQQKPGTSPKLWIYSTSNLASGVPARFSGSGSGTSCSLTISRMEAEDAATYYCQQRSSFPLTFGAGTKLELK
notes: also called Clone CL0020215
B6: CL0020173 (antibody, V domains shown)
VH: EVKLLESGGGLVQPGSSMRLSCAASGFTFTDFYMNWIRQPAGRAPEWLGFFRNIVDGYTTEYNPSVKGRFTISRDNTQNMLYLQMNTLRAEDTATYYCARSGYSSYIYGGTFAYWGQGTLVTVSS
VL: ETVMTQSPTSMSTSIGERVTLNCKASQSVGIHVDWYQQTPGQSPKLLIYGASNRHTGVPDRFTGSGFGRDFTLTISNVEAEDLAVYYCLQYGSIPWTFGGGTKLELK
notes: also called Clone CL0020173
B7: CL0020186 (antibody, V domains shown)
VH: EVQLVESGGGLVQPGRSLKLSCPASGFTFSYYGMAWVRQAPTKGLEWVASISTGGGNTYYRDSVKGRFTISRDNAKNTLYLQMDSLRSEDTATYYCARGDIGTAYWFTYWGQGTLVTVSS
VL: NIQLTQSPSLLSASVGDRVTLSCKGSQNINNYLAWYQQKLGEAPKLLIYKTNSLLTGIPSRFSGSGSGTDYTLTISSLHSEDLATYYCYQYNNGWTFGGGTKLELK
notes: also called Clone CL0020186
B8: CL0020111 (antibody, V domains shown)
VH: B5 VH with E10D, M35T, K38Q, S54G, S57N, K65R, N66S, R67K, F95Y
VL: B5 VL with I10F, S24R, Y48F, C70H, S92G, F93Y
notes: also called Clone CL0020111
B9: CL0020214 (antibody, V domains shown)
VH: QVRLQQSGAELVRPGSSVKLSCKASGYAFSSYWMNWVKQRPGQGLEWIGQIYPGDGDTNYNGNFKGKATLTADNSSSTAYMQLSSLTSEDSAVYFCARRRNGDFGDYAMDYWGQGTSVTVSS
VL: QIVLTQSPAIMSASPGEKVTISCSASSSVSYMCWYQQKPGSSPKPWIYRTSTLASGVPARFSGSGSGTSYSLTISSMEAADAATYYCQHYHSYPFTFGAGTKLELK
notes: also called Clone CL0020214
B10: CL0020161 (antibody, V domains shown)
VH: EVQLVESGGGLVQPGRSMKLSCAALGFTFSNYYMAWVRQAPRKGLEWVASISTGGDNTYYRDSVKGRFTISRDNAKSTLYMQMDSLRSEDTATYYCVRSFIVGTTGYYFDYWGQGVMVTVSS
VL: DIVLTQSPALAVSLGQRATISCKTNQNVDYYGNNYMHWYQQTPGQQPKLLIYFASNLASGIPARFSGRGSGTDFTLTIDPVEADDTATYYCQQSRNLPTFGGGTKLELK
notes: also called Clone CL0020161
B11: CL0020162 (antibody, V domains shown)
VH: QIQLVQSGPELKKPGESLKISCKASGYTFTDYAMQWVKQAPEKGLQYMGWINTQTGKPTYADDFKERFVFSLETSATTAYLQINNLKNEDMATYFCVRSYNNYENWFAYWGQGTLVTVSS
VL: DIVMTQSPSSLAVSAGETVTINCKSSQSLLYSGNQKNYLAWYQQKPGQSPKVLIYWASTRQFGVPDRFIGSGSGTDFTLTISSVQAEDLAIYYCQQYYNSPITFGSGTKLEIK
notes: also called Clone CL0020162
B12: CL0020103 (antibody, V domains shown)
VH: EVQLQQSGPELVKPGASVKISCKTSGYTFTEYTMHWVKESHGKSLEWIGGINPNKGGSSYNQKFKGKATLTVDKSSSTAYMDLRRLTSEDSAVYYCARGGYEYYALDYWGQGTSVTVSS
VL: B2 VL with L2I, A12T, N33R, D34N, I45K, T78S, F93Y, A106G, L112I
notes: also called Clone CL0020103
B13: CL0020124 (antibody, V domains shown)
VH: EVQLQQSGPVLVKPGASVKMSCKPSGYTFTDYYMNWVKQSHGKSLEWIGSINPYTGGSSYNQKFRGKATLTVDKSSSTAYMELNSLTSEDSAVYYCARGSYYSNLGFAYWGQGTLVTVSA
VL: DVQLTQSPSYLTASPGETITINCRASKSISKYLAWYQEKPGKTNKLLISSGSTLQSGIPSRFSGSGSGTDFTLTISSLEPEDFAMYYCQQYSEYPFTFGSGTKLEIK
notes: also called Clone CL0020124

Biological target: T1, His-tagged human TREM2 ECD
Experiment: SPR (Biacore), antibody captured via anti-human Fab, recombinant TREM2 ECD injected, 1:1 fit
Method: Surface plasmon resonance (Biacore™ 8K instrument) was used to measure anti-TREM2 antibody affinities for human and cynomolgus TREM2 ECD. Anti-TREM2 antibodies were captured using Human Fab Capture Kit (GE Healthcare Life Sciences, Catalog No. 28958325) on a Biacore Series S CM5 sensor chip (GE Healthcare Life Sciences, Catalog No. 29149604). Serial 3-fold dilutions of recombinant human or cynomolgus TREM2 were injected at a flow rate of 30 μL/min. Antibody binding was monitored for 300 seconds, followed by monitoring of antibody dissociation for 600+seconds in HBS-EP+ running buffer (GE Healthcare Life Sciences, Catalog No. BR100669). The binding response was corrected by subtracting the RU value from a blank flow cell. A 1:1 Languir model of simultaneous fitting of kₒₙ and koff was used for kinetics analysis.

| Binder | Kd [nM] |
| --- | --- |
| B1 | 4.6 |
| B2 | 5.54 |

Biological target: T2, human TREM2 full length stalk region …
Experiment: ELISA on biotinylated peptide captured by streptavidin; A450 normalised to isotype control
Method: (§1) TREM2 antibodies were evaluated for binding to human and mouse TREM2 stalk region peptides. […] Antibody binding to TREM2 stalk peptides was detected using standard sandwich ELISA. Briefly, a 96-well half-area ELISA plate was coated with streptavidin overnight at 4° C. The following day, biotinylated TREM2 stalk peptides diluted in 1% BSA/PBS were added to the plate and incubated for 1 hour. Antibodies diluted in 1% BSA/PBS were then added and incubated for 1 hour. Antibodies bound to peptide were detected with anti-human kappa-HRP secondary antibody (Bethyl Laboratories, Inc.) diluted in 1% BSA/PBS. Plates were assayed by reaction with a detection reagent (One-step TMB Ultra, Thermo) and measurement of absorbance at 450 nm (A450) by standard spectrophotometry instrumentation (BioTek®). Data are shown as normalized values (fold over background where background=isotype control).

| Binder | fold over background (A450) [fold] |
| --- | --- |
| B1 | 45 |
| B2 | 45 |
| B3 | 50 |
| B4 | 1.7 |
| B5 | 1.2 |
| B6 | 1.6 |
| B7 | 4.9 |
| B8 | 1.3 |
| B9 | 1.5 |
| B10 | 1.4 |
| B11 | 49 |
| B12 | 56 |

Biological target: T3, mouse TREM2 full length stalk region …
Experiment: as above
Method: as §1

| Binder | fold over background (A450) [fold] |
| --- | --- |
| B2 | 45 |
| B3 | 51 |
| B13 | 1.6 |
| B4 | 1.7 |
| B5 | 1.1 |
| B6 | 1.2 |
| B7 | 7 |
| B8 | 1.1 |
| B9 | 1.3 |
| B10 | 1.2 |
| B11 | 10 |
| B12 | 4.1 |

Biological target: T4, human TREM2 truncated stalk peptide (aa …)
Experiment: as above
Method: as §1

| Binder | fold over background (A450) [fold] |
| --- | --- |
| B3 | 1.4 |
| B13 | 1.5 |
| B4 | 1.5 |
| B5 | 1.1 |
| B6 | 1.2 |
| B7 | 1.3 |
| B8 | 1.6 |
| B9 | 1.3 |
| B10 | 1 |
| B11 | 1.3 |
| B12 | 1.8 |

Biological target: T5, human TREM2 on the cell surface
Experiment: cell-based or functional assay

| Binder | NFAT EC50 (nM), plate coated mAb [nM] | Survival EC50 (nM), plate coated mAb, human macrophages [nM] | pSyk activation (human macrophages) EC50 (nM) |
| --- | --- | --- | --- |
| B1 | 25.5 | 2 | 5.9 |
| B2 | 16.2 | 1.8 | 30.9 |

Biological target: T5, human TREM2 on the cell surface
Experiment: cell binding, human macrophages, dose titration

| Binder | EC50 [nM] |
| --- | --- |
| B1 | 0.6 |
| B2 | 14 |
